Results: patent publication US20240025956A1 (MIYAGI PREFECTURAL HOSPITAL ORGANIZATION, published 2024)
Positions count from the first letter of the chain named.

What was measured:
mouse IL-2 receptor α [1] = molecular target: T1, mouse IL-2 receptor α (mouse, UniProt P01590 22-268); assay: NanoLuc on-cell binding, mouse IL-2Rα-expressing 293T, ratio 293Ta/293T, 10 nM
T1 construct: whole, on cells; also called mouse IL-2Rα; CD25
T1 sequence (looked up): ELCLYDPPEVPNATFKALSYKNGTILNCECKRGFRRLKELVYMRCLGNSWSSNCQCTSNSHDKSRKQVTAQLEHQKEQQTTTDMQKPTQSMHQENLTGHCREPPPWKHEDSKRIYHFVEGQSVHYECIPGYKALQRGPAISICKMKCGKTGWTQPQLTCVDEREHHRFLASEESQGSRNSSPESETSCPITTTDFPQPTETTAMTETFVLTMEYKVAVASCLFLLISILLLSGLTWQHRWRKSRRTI
Description: (§1) Next, IL-2 receptor α binding capability on cells (on-cell receptor binding) was measured. Specifically, 293T cells were obtained from the RIKEN Cell Bank (RCB2202). Human and mouse IL-2 receptor α-expressing 293T (293Ta) was established as cells stably expressing the IL-2 receptor α in 293T through use of lentiviral vectors (pSIN-EF-RfA2-1-human IL-2Ra and pSIN-EF-RfA2-1-mouse IL-2Ra) constructed respectively with human and mouse IL-2 receptor α-chain genes (NCBI Reference Sequence: NM_000417.2 and NM_008367.3) as cassettes. 293T and human or mouse 293Ta were allowed to adhere to a 24 wel cell culture plate (Techno Plastic Products AG, #92424). After that, a suspension (10 nM) of NanoLuc (trademark) luciferase sequence (Promega Corporation, USA)-fused mature stable mutant human MK-4-IL-2 (MK-4, pcDNA4-MK-4-NLuc, corresponding to a comparative example), mature stable mutant human MK-6-IL-2 (MK-6, pcDNA4-MK-6-NLuc), mature stable mutant human IL-2 (MK-14, pcDNA4-MK-14-NLuc, IL-2 positive control), or mature stable mutant human MK-15-IL-2 (MK-15, pcDNA4-MK-15-NLuc) was added, and the mixture was subjected to a reaction by being left at rest at 4° C. for 1 hour. The cells were washed, followed by quantification. The binding capability of mutant IL-2 for the α-subunit is shown as a numerical value for a ratio between amounts bound to 293Ta and 293T (293Ta/293T). […]

mouse IL-2 receptor α [2] = molecular target: T1, mouse IL-2 receptor α; assay: NanoLuc on-cell binding, mouse IL-2Rα-expressing 293T, ratio 293Ta/293T
Description: as §1

human IL-2 receptor α = molecular target: T2, human IL-2 receptor α (human, UniProt P01589 22-272); assay: NanoLuc on-cell binding, human IL-2Rα-expressing 293T, ratio 293Ta/293T
T2 construct: whole, on cells; also called IL-2Rα; CD25
T2 sequence (looked up): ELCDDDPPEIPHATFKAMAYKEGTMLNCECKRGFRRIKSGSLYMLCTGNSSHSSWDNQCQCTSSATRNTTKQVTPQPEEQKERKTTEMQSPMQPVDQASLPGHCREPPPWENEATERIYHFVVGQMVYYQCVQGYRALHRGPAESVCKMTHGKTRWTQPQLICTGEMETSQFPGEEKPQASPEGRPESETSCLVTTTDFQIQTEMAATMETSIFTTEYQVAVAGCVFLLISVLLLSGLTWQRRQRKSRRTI
Description: as §1

B1: NanoLuc luciferase sequence-fused mature stable mutant human MK-4-IL-2 (ligand, not shown: large carriers)
chain: APASSSTKKTQLQLEHLLLDLQMILNGINNYKNPALTAMLTFKFYMPKKATELKHLQCLEEELKPLEEVLNLAQSKNFHLRPRDLISNINVIVLELKGSETTFMCEYADETATIVEFLNRWITFAQSIISTLT
notes: also called pcDNA4-MK-4-NLuc
binding result (mouse IL-2 receptor α [1]): binds

B2: NanoLuc luciferase sequence-fused mature stable mutant human MK-15-IL-2 (ligand, not shown: large carriers)
chain: B1 chain with F42A, Y45A
notes: also called pcDNA4-MK-15-NLuc
binding result (mouse IL-2 receptor α [2]): no binding (tested: 10 nM) | binding result (human IL-2 receptor α): no binding (tested: 10 nM)

B3: NanoLuc luciferase sequence-fused mature stable mutant human MK-6-IL-2 (ligand, not shown: large carriers)
chain: B1 chain with K43A, Y45A
notes: also called pcDNA4-MK-6-NLuc
binding result (human IL-2 receptor α): no binding (tested: 10 nM)
